{"source": "patent CN114106188A", "about": "(SHENZHEN PEOPLE HOSPITAL, dated 2022)", "binders": {"B1": {"name": "NbA11纳米抗体 (VHH)", "VHH": "AVQLVESGGGLVQAGGSLRLSCAASGRAFSRYAVGWFRQTPGKEREFVAAISYHGGYTAYADSVKGRFTISRDSTSNTVHLQMNSLKPEDTAVYYCNTDARALYDYWGQGTQVTVSS", "notes": "Alpaca-derived nanobody from a naive phage display library; Expressed in E. coli from PET-14B with an HA tag and purified on a Ni column"}}, "target": "T1, ERp57蛋白 (蛋白二硫化物异构酶A3, purified recombinant full-length protein)", "T1 chain": "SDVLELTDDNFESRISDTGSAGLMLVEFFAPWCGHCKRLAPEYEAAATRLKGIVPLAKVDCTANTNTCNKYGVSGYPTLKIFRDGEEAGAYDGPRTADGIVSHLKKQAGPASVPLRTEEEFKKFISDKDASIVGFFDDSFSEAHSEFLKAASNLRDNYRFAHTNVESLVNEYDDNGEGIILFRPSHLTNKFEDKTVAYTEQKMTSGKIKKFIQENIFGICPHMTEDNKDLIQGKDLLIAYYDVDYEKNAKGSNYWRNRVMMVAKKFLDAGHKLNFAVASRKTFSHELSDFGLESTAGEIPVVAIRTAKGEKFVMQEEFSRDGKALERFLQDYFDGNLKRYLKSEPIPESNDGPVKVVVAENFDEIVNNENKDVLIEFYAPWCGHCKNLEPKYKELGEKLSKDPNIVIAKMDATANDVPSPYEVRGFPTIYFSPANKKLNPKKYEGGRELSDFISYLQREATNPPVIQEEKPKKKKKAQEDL", "test": "SPR (Biacore), antigen protein immobilised on chip, nanobody as analyte"}
{"binder": "B1", "values": [{"measurement": "Kd", "result": 419, "unit": "nM"}]}
